Measured values from the supplement of paper PMC9732359.
± gives the uncertainty stated by the source.

Experiment: protein stability index of a GFP-peptide fusion (yeast GPS) (PSI 1-4); higher = more stable; sorted into four equal gates, so the index is relative within each strain
Outline: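 Plasmids isolated from each sorting gate were PCR-amplified and Illumina-sequenced, and barcodes assigned the reads to strains. The gates, four of equal size, were set by GFP/Cherry fluorescence ratio on mid-log cultures in leucine-free medium. These cultures were yeast carrying a pooled library of tiled 17-residue yeast protein peptides fused downstream of GFP on a plasmid that also expresses Cherry. The protein stability index is the sum of every gate's read frequency times its gate number.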

| Sequence | protein stability index (doa10∆) | protein stability index (pdr5∆) | protein stability index (san1∆) | protein stability index (ubr1∆) |
| --- | --- | --- | --- | --- |
| RIDAFNALEHKYFTESD [SSN3] | 2.72 ± 0.055 | 3 ± 0.046 | 2.95 ± 0.05 | 3.05 ± 0.052 |
| QPLFSTVPEYLKTADNR [PGD1] | 2.79 ± 0.088 | 2.6 ± 0.099 | 2.87 ± 0.075 | 2.96 ± 0.057 |
| KKKDPVNQDKANNASQI [SNF12] | 3.02 ± 0.093 | 3.22 ± 0.11 | 3.19 ± 0.075 | 3.19 ± 0.068 |
| PLFIVEDDESLGHKELK [RPB2] | 3.34 ± 0.15 | 3.34 ± 0.15 | 2.77 ± 0.14 | 1.8 ± 0.097 |
| TFIKDCLFTKCLEDPEK [POP4] | 1.57 ± 0.11 | 1.78 ± 0.091 | 1.57 ± 0.18 | 1.83 ± 0.061 |
| VMYNGHTGKKLMAQIFF [RPB2] | – | 2.31 ± 0.16 | 3.08 ± 0.14 | 1.27 ± 0.045 |
| NVEESVSKADILLSHHR [POP5] | 3.16 ± 0.19 | – | 2.91 ± 0.086 | 3.03 ± 0.1 |
| KFLNFRPPNGIKNFKSL [SSN2] | 1.87 ± 0.04 | 1.83 ± 0.04 | 2.16 ± 0.061 | 1.79 ± 0.031 |
| RMRIFASNEVIAKSRYW [RPL20A] | 2 ± 0.049 | 2.57 ± 0.065 | 2.54 ± 0.068 | 2.53 ± 0.035 |
| MYTLSAQDEVFSLAFSP [ASC1] | 2.24 ± 0.062 | 2.82 ± 0.085 | 2.78 ± 0.059 | 2.75 ± 0.066 |
| KVGQFDQVLNLCLTEFE [FAS1] | 2.75 ± 0.076 | 2.97 ± 0.062 | 2.73 ± 0.06 | 3.11 ± 0.038 |
| TNDRLNREAATKEVESN [DIS3] | 2.79 ± 0.14 | 2.58 ± 0.096 | 2.62 ± 0.12 | 3.1 ± 0.1 |
| NIVDSSAAGNKAIPTFS [YIL149C/MLP2] | 2.31 ± 0.066 | 2.44 ± 0.077 | 3 ± 0.057 | 2.44 ± 0.059 |
| QSSLDVAGLEDKFRKAC [SIR3] | 3.62 ± 0.14 | 3.18 ± 0.16 | 3.42 ± 0.13 | 3.06 ± 0.21 |
| TSPIDIREKVAKQALDL [SNF2] | 3.28 ± 0.14 | 3.17 ± 0.19 | 2.81 ± 0.13 | 2.69 ± 0.15 |
| NGIPLKSKERSSQFVRL [YMR129W/POM152] | 2.75 ± 0.15 | 2.6 ± 0.14 | 3.22 ± 0.096 | 2.85 ± 0.075 |
| NLNELESQLQMDRTSLR [SMC3] | 2.57 ± 0.15 | 2.59 ± 0.16 | 2.5 ± 0.22 | – |
| VFKTHSYRGVDLEKLLE [RPS15] | 3.2 ± 0.083 | 3.18 ± 0.062 | 3.14 ± 0.045 | 2.29 ± 0.04 |
| ITHQGANSESGHYQAFI [UBP6] | 3.04 ± 0.19 | 2.95 ± 0.08 | 3.16 ± 0.071 | 3.05 ± 0.079 |
| LHYTPIEDLWQFLYEKH [RPC82] | 2.24 ± 0.13 | 2.28 ± 0.13 | 2.14 ± 0.12 | 2.4 ± 0.16 |
| QLISAVLVSMGSSNKAV [YJL039C/NUP192] | 1.47 ± 0.23 | 1.69 ± 0.14 | – | 1.23 ± 0.084 |
| LKVTKKHGAKKVAKRTK [RPL27A] | 3.37 ± 0.13 | 3.54 ± 0.17 | 3.39 ± 0.11 | 3.18 ± 0.13 |
| PDDDKIVPLTEGDIQVL [RPT1] | 3.21 ± 0.097 | 3.22 ± 0.1 | 2.7 ± 0.07 | 3.01 ± 0.052 |
| LARRTDAPFNKVVLKAL [RPL18A] | 1.22 ± 0.057 | 1.28 ± 0.048 | 1.18 ± 0.12 | 1.45 ± 0.068 |
| VSPNISSASPSALTSPT [SIR3] | 2.45 ± 0.056 | 2.78 ± 0.074 | 2.95 ± 0.06 | 2.53 ± 0.04 |
| IIEKITDQILQLLKEDS [RRP45] | 2.35 ± 0.11 | 2.5 ± 0.11 | 2.26 ± 0.14 | 2.37 ± 0.13 |
| RGMLGLLEPPAKELQGI [RPO31] | 2.08 ± 0.18 | 1.72 ± 0.18 | 3.28 ± 0.096 | 3.23 ± 0.16 |
